Test results taken from US20200138870A1, “RECREATION OF PANCREATIC NICHE ALLOWS FOR NOVEL METHODS FOR HUMAN, MATURE BETA DERIVATION FROM PLURIPOTENT STEM CELLS” (Baylor College of Medicine, priority 2016, published 2020).

Experiments:
[1] = test system: hESC-derived EPs; assay: qPCR-based gene expression analysis of WNT5A-treated EPs; assay type: cell-based, human
Protocol: Total RNA was isolated using TRIzol (Thermo Fisher Scientific) according to the manufacturer's protocol. DNAase (Qiagen) treatment was performed to remove genomic DNA. cDNA was synthesized using iScript (Biorad) by using […] of RNA. For qPCR, KAPA SYBR FAST (Kapa Biosystems) and Connect CFX light cycler (Biorad) for PCR reaction (<40 cycles were used). Primers were designed using qPrimerDepot in such way that the PCR product spans across exons junction. Primer specificity was checked using CFX manager software v3.1 […] and PCR product electrophoresis. Threshold data were analyzed by CFX manager software v3.1 using Comparative Ct relative quantitation method with TBP as internal control.

[2] = test system: hESC-derived EPs; assay: Transwell migration and chemotaxis assay; assay type: cell-based, human; conditions: 100, 500 ng/ml WNT5A in bottom well
Protocol: Transwell assays were performed using FluoroBlock Insert, […] pore size (Corning). The bottom 24 wells and the insert of transwell were coated with Geltrex to retained cells. At the experiment day, 1.5×10^5 hESC-derived EPs were seeded in each well at the transwell insert in B27 media with 10 μM Y-27632 and the well bottoms were replenished with either B27 media as control, B27 media+100 or 500 ng/ml WNT5A, or conditional media from Wk9.1, 17.5h and 20.1. After one week, the cell attached to the bottom wells were stained with Dapi and were counted.

B1: WNT5A: secreted growth factor from the human pancreatic niche (R&D), used at 100 or 500 ng/ml (protein)
chain: IIGAQPLCSQLAGLSQGQKKLCHLYQDHMQYIGEGAKTGIKECQYQFRHRRWNCSTVDNTSVFGRVMQIGSRETAFTYAVSAAGVVNAMSRACREGELSTCGCSRAARPKDLPRDWLWGGCGDNIDYGYRFAKEFVDARERERIHAKGSYESARILMNLHNNEAGRRTVYNLADVACKCHGVSGSCSLKTCWLQLADFRKVGDALKEKYDSAAAMRLNSRGKLVQVNSRFNSPTTQDLVYIDPSPDYCVRNESTGSLGTQGRLCNKTSEGMDGCELMCCGRGYDQFKTVQTERCHCKFHWCCYVKCKKCTEIVDQFVCK
- GCG expression compared to untreated cells (in words) ([1]; 5-day WNT5A-treated cells): decreased
- INS, CHGA, ONECUT1 and PCSK2 expression compared to untreated cells (in words) ([1]; 5-day WNT5A-treated cells): increased
- BMP3, BMP4 and BMP6 expression by qPCR (in words) ([1]; 5 day-WNT5A treatment): downregulation
- BMP inhibitor BMPER expression by qPCR (in words) ([1]; 5 day-WNT5A treatment): upregulation
- chemoattractant activity on EP migration (in words) [2]: does not act as a chemoattractant
